B1: RTN2 (parent)
chain: SERPLEDLRLRLDHLGWVARGTGS
B2: SCNN1D (parent)
chain: FYRLYQDLETHRLPCTSRCPRPCR

Variants of: B1
Assay: protein stability index of a GFP-peptide fusion (GPS, HEK-293T) (PSI 1-6); higher = more stable
Conditions: c terminus: a fixed tail appended
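Also: lentivirally expressed fusions sorted by FACS into six bins by GFP to DsRed ratio, PSI derived from sequencing read proportions per bin multiplied by bin number.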

Protein stability index: each site, then its substitutions
D7: A 1.94; V 1.9; H 1.87; R 1.79; T 1.88; Q 1.43; M 1.02; G 1.96; W 1.29; N 1.99
R9: C 3.37; H 2.56; Q 2.26; N 2.84; V 3.31; E 2.85; K 1.92; M 1.42; W 1.64; S 1.2; Y 2.26; I 2.17; F 1.63; P 2.1; T 2.27; A 2.34; D 2.31
E6: H 2.34; Q 2.49; G 2.35; K 1.53; T 1.29; M 2.29; P 2.15; S 1.93; V 2.63; W 1.62; N 2.24; F 2.78; A 2.27; D 1.68; C 2.72; I 1.71
R11: I 1.41; T 2.28; A 1.92; Y 2.7; W 1.4; Q 2.9; F 1.79; C 1.52; N 2.58
L5: G 2.33; T 2.38; V 4.48; W 1.97; I 2.52; N 1.48; M 2.46; F 3.45; S 2; D 3.44; P 2.07; Y 2.53
L12: A 2.97
E2: F 2.9; G 2.28; L 1.42; Y 2.68; N 1.68; A 1.99; H 2.19; I 2.12; S 2.43
R3: K 1.63; F 2.18; D 2.82; N 2.48; W 1.62; A 3.86; C 2.4; L 2.49; P 3.56; G 2.19; Q 2; Y 1.86; S 2.07; M 2.99; H 2.76
L8: F 1.96; Q 1.47; A 2.73; H 2.16; E 3.52; Y 2.35; N 2.13; D 2.32; V 1.64; I 2.44; K 2.83; W 1.87
L10: R 2.19; D 2.72; N 2.69; C 2.73; K 2.06; F 3.78; T 1.93; H 2.38; P 1.74; G 3.89; M 2.39; S 3.19; E 3.15; A 2.46
P4: R 1.59; K 2.38; D 2.53; V 1.26; F 3.68; E 2.61; L 1.94; W 1.73; Q 2.95
S1: C 1.88; N 2.57; I 3.02; M 2.73; G 2.87; W 2.46; K 2.61; L 1.76; P 2.66; E 2.74

Variants of: B2
Assay: as above
Conditions: c terminus: a fixed tail appended

Protein stability index, by site and new letter:
P22: N 2.72; S 2.33; E 2.27; K 2.18; I 1.72; T 2.25; F 1.8; V 1.8; R 2.39; Q 2.5; W 1.13; Y 1.32; H 2.38; C 3.11; G 2.15; M 1.5
L13: D 2.19; W 2.21; Q 2.03; I 2.38; S 2.67; E 3.25; R 3.39; C 1.85; G 2.66; M 2.24; K 2.63; Y 1.72; A 2.42; N 2.23; F 2.33; T 2.97; H 2.38
R24: A 2.2; L 1.6; I 1.65; D 1.6; H 1.69; Q 2.57; C 1.77; T 3.87; N 1.61; P 2.35; E 2.14; F 1.75; M 2.8; K 2.65; Y 1.67; W 1.3; S 2.13
R18: S 1.94; Y 1.78; H 1.91; I 1.15; G 2.54; T 2.15; D 1.78; P 1.74; M 2.29; V 1.4; F 1.79; L 1.86; C 1.51; N 2.18
C19: M 2.06; D 2.03; E 2.66; F 2.65; N 3.89; I 2.64; K 1.96; A 1.94; P 2.03; T 3.26; S 2.09; R 2.21; G 2.32; Q 2.59; Y 1.88; V 2.1; L 2.68; W 3.18; H 1.84
P20: T 2.88; F 2.83; A 1.98; L 2.27; I 2.22; N 2.13; S 1.83; C 2.51; Y 1.44; D 1.81; K 2.57; G 1.95; E 1.32; H 2.18; R 2.07
S17: K 1.96; M 1.86; Q 2.45; A 2.46; Y 2.09; I 1.85; R 2.56; T 2.61; N 2.15; P 2.46; C 1.65; H 2.33; W 1.02; L 1.5; E 2.43; F 1.75; V 4.43; G 1.96
T16: I 1.62; Y 1.6; F 1.58; R 1.46; V 1.94; N 2.21; W 1.51; Q 1.98; H 1.49; G 1.93; K 1.9; E 2.5; A 1.98; L 1.82; C 1.66; D 2.79; M 2.1; S 1.82; P 1.11
P14: C 1.44; D 2.06; I 1.53; T 1.76; Q 1.94; Y 1.45; N 1.96; F 1.79; E 2.39; A 2.01; V 1.47; H 1.97; S 2.44; M 1.6; L 3.27; W 1.57; K 1.89; R 2.09; G 2.3
C23: T 2.37; D 3.36; H 2.17; A 2.23; P 2.43; S 2.67; Y 2.33; M 2.41; N 1.91; Q 2.42; I 2.11; E 2.43; F 1.71; G 2.65; V 1.85
R12: Y 1.78; W 2
C15: Y 1.8; A 2.07; F 2.71; G 2.47; S 2.64; R 2.3; P 1.85; I 2.48; Q 1.76; H 2.28; D 2.24; T 2; W 1.75; M 1.73
R21: M 1.25; G 2.71; F 1.96; D 1.83; E 2.22; H 3.38; T 2.1; Q 3.16; P 2.26; Y 2.71; L 2.21; N 1.68; V 1.63; S 1.88; W 2.46

From the supplement of paper PMC10567573
